Data from patent US8637465B2, “Fibroblast growth factor receptor-derived peptides binding to NCAM” (Kobenhavns Universitet, priority 2009, dated 2014).
Entries after “also recorded” stand apart in the source; their conditions may differ. One block for each molecule: values may come before it.

What was measured:
[1] = biological target: T1, FGFR Ig2-NCAM F3(1-2) binding (Mus musculus, UniProt P16092); assay: SPR analysis of inhibition of FGFR Ig2-NCAM F3(1-2) binding; parameters: species or system mouse FGFR1, rat NCAM; settings: 20 μM Ig2 module of FGFR, indicated concentrations of SOS; FIG. 4
T1 construct: AGHHHHHH and amino acids 140-251 of FGFR (SwissProt p16092); made in house; host or cells: Pichia pastoris KM71
T1 sequence (P16092 140-251): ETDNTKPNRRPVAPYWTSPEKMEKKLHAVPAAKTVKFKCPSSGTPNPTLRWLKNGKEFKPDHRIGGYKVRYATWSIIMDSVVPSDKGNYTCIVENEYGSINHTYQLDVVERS
Method: The binding of 20 μM Ig2 module of FGFR to the immobilized NCAM F3 modules 1-2 was performed using indicated concentrations of SOS. The experiment was repeated 9 times. Immobilization of the NCAM and FGFR modules and binding analysis were performed using a BIAcore2000 instrument (Biosensor AB, Sweden) at 25° C. using 10 mM sodium phosphate containing 150 mM NaCl (pH 7.4) as running buffer. Data were analyzed by nonlinear curve fitting using the manufacturer's software. The FGFR Ig module 2 and NCAM F3 modules 1-2 were immobilized on sensor chip CM5 using an amine coupling kit (Biosensor AB) as follows: the chip was activated by 20 μl activation solution; the protein was immobilized using 12 μl of 20 μg/ml protein in 10 mM sodium acetate buffer (pH 6.0); the chip was blocked by 35 μl blocking solution. The curves corresponding to the difference between binding to ligand (immobilized molecule) and a blank chip were used for analysis. One of the identified clusters (the first one) is located in the close vicinity of the sites in Ig2 for binding of FGF, heparin and Ig2 (FIG. 3) (Plotnikov et al., 1999; Pellegrini et al., 2000). […] To verify this assumption, we tested sucrose octasulphate (SOS), a well-known heparin analogue, for its ability to inhibit binding of soluble Ig2 to the immobilized NCAM F3 modules.

[2] = biological target: T2, fibronectin modules (F3(1-2)) of NCAM (Rattus norvegicus, UniProt P13596); assay: Binding of FGFR1-Ig2 derived peptides to immobilized fibronectin modules (F3(1-2)) of NCAM; settings: FIG. 5 and FIG. 6
T2 construct: amino acids 507-611 and 507-705 of NCAM (SwissProt p13596), respectively; made in house; host or cells: Pichia pastoris KM71
Method: Immobilization of the NCAM and FGFR modules and binding analysis were performed using a BIAcore2000 instrument (Biosensor AB, Sweden) at 25° C. using 10 mM sodium phosphate containing 150 mM NaCl (pH 7.4) as running buffer. Data were analyzed by nonlinear curve fitting using the manufacturer's software. The FGFR Ig module 2 and NCAM F3 modules 1-2 were immobilized on sensor chip CM5 using an amine coupling kit (Biosensor AB) as follows: the chip was activated by 20 μl activation solution; the protein was immobilized using 12 μl of 20 μg/ml protein in 10 mM sodium acetate buffer (pH 6.0); the chip was blocked by 35 μl blocking solution. The curves corresponding to the difference between binding to ligand (immobilized molecule) and a blank chip were used for analysis.

[3] = biological target: T3, FGFR1 Ig2 module (Mus musculus, UniProt P16092); assay: SPR binding of soluble NCAM F3 modules 1-2 to immobilized FGFR Ig2 module; settings: 25° C., pH 7.4, FIG. 1B, estimated
T3 construct: AGHHHHHH and amino acids 140-251 of FGFR (SwissProt p16092); made in house; host or cells: Pichia pastoris KM71
T3 sequence (P16092 140-251): T1 sequence (P16092 140-251)
Text: (§1) To study the binding properties between the FGFR Ig2 module and NCAM, we used recombinant proteins of the NCAM F3 modules 1-2 and the FGFR1 Ig2 module. Both proteins were properly folded as judged by one-dimensional NMR.
(§2) The Ig2 module of mouse FGFR1 (IIIc isoform) and rat NCAM F3 modules 1-2 were produced. Both proteins were expressed in a KM71 strain of yeast expression system of P. pastoris (Invitrogen, USA). The FGFR Ig module 2 consists of AGHHHHHH and amino acids 140-251 of FGFR (SwissProt p16092) and the combined F3 modules 1 and 2 consist of AGHHHHHH and amino acids 507-611 and 507-705 of NCAM (SwissProt p13596), respectively. For the protein expression the following media were used: BMGH (0.1 M potassium phosphate pH 6.0, 3.4 g/L yeast nitrogen base (without amino acids and ammonium sulphate), 10 g/L ammonium sulphate, 400 μg/L D-biotin, 60 mg/L L-histidine, 2% glycerol) and BMMH (0.1 M potassium phosphate pH 6.0, 3.4 g/L yeast nitrogen base (without amino acids and ammonium sulphate), 10 g/L ammonium sulphate, 400 μg/L D-biotin, 60 mg/L L-histidine, 1% methanol). […]
(§3) Immobilization of the NCAM and FGFR modules and binding analysis were performed using a BIAcore2000 instrument (Biosensor AB, Sweden) at 25° C. using 10 mM sodium phosphate containing 150 mM NaCl (pH 7.4) as running buffer. Data were analyzed by nonlinear curve fitting using the manufacturer's software. […]

[4] = biological target: T4, FGFR Ig2-Ig3 construct (Mus musculus, UniProt P16092); settings: SPR; Kiselyov et al., 2003; read-out: dissociation constant (Kd), NCAM F3 modules 1-2 binding to FGFR Ig2-Ig3 construct; cited from earlier work
T4 construct: the double-module FGFR Ig2-Ig3 construct
T4 sequence (P16092 141-365 limits assumed): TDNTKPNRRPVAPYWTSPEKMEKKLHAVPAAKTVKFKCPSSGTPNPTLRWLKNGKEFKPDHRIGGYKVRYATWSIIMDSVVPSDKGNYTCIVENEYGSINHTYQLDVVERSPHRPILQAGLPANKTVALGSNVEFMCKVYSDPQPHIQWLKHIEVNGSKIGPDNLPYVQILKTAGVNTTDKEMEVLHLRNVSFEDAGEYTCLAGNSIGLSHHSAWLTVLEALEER

[5] = biological target: T5, NCAM F3 modules 1-2 (Rattus norvegicus, UniProt P13596); assay: SPR binding of soluble FGFR Ig2 module to immobilized NCAM F3 modules 1-2; settings: 25° C., pH 7.4, FIG. 1A, estimated
T5 construct: amino acids 507-611 and 507-705 of NCAM (SwissProt p13596), respectively; made in house; host or cells: Pichia pastoris KM71
Text: as §1, §2, §3

binding to the immobilized fibronectin modules (F3(1-2)) of NCAM [2]: binding
Molecule: RWLKNGKEFK (Derived from FGFR) [SEQ ID NO:3, FGFR1-Ig2 derived peptide (amino acids 189-198)]

binding to the immobilized fibronectin modules (F3(1-2)) of NCAM [2]: binding
Molecule: AKTVKFK (Derived from FGFR) [SEQ ID NO:2, FGFR1-Ig2 derived peptide (amino acids 171-177)]

More lines, now with the values behind:

Molecule: O=S(=O)(O)OC[C@H]1O[C@@](COS(=O)(=O)O)(O[C@H]2O[C@H](COS(=O)(=O)O)[C@@H](OS(=O)(=O)O)[C@H](OS(=O)(=O)O)[C@H]2OS(=O)(=O)O)[C@@H](OS(=O)(=O)O)[C@@H]1OS(=O)(=O)O [SOS, sucrose octasulphate]
inhibition of binding of soluble Ig2 to the immobilized NCAM F3 modules [1]: capable of inhibiting; also recorded: inhibitory effect

B1: NCAM F3 modules 1-2: recombinant rat NCAM fibronectin type III modules 1-2 with AGHHHHHH tag (SwissProt p13596) (protein)
chain: AGHHHHHHQADTPSSPSIDRVEPYSSTAQVQFDEPEATGGVPILKYKAEWKSLGEEAWHSKWYDAKEANMEGIVTIMGLKPETRYAVRLAALNGKGLGEISAATEFKTQPVREPSAPKLEGQMGEDGNSIKVNLIKQDDGGSPIRHYLVKYRALASEWKPEIRLPSGSDHVMLKSLDWNAEYEVYVVAENQQGKSKAAHFVFRTSAQ
Kd [3]: 12 µM
Kd [4]: 10 µM

B2: FGFR Ig2 module: recombinant Ig2 module of mouse FGFR1 (IIIc isoform): AGHHHHHH and amino acids 140-251 of FGFR (SwissProt p16092) (protein)
chain: AGHHHHHHETDNTKPNRRPVAPYWTSPEKMEKKLHAVPAAKTVKFKCPSSGTPNPTLRWLKNGKEFKPDHRIGGYKVRYATWSIIMDSVVPSDKGNYTCIVENEYGSINHTYQLDVVERS
Kd [5]: 35 µM
